The text below walks through data of publication PMC8427231, “Mechanism of dimerization and structural features of human LI-cadherin” (The Journal of Biological Chemistry, 2021).

By Kd is commonly meant the constant that tells how readily two partners part at equilibrium. The stoichiometry N is the number of molecules, sites or subunits per partner or assembly.

Data set [1] deals with the molecule itself. Nature of the data set: AUC; sedimentation velocity (SV-AUC), 20 °C, buffer A (10 mM Hepes-NaOH pH 7.5, 150 mM NaCl, 3 mM CaCl2); EC1-7 at 1-20 μM, EC1-2, EC3-4, EC1-4, EC1-5 at 1-60 μM, EC1-4F224A at 1-120 μM; KD of the monomer-dimer equilibrium (dimer to monomers) from the weight-average sedimentation coefficient, SEDPHAT.
Data set [2] deals with the molecule itself. Briefly: SEC-MALS; Superose 12 10/300 GL, 45 μl injected at 100 μM or 50 μM, eluted at about 4 μM; protein conjugate analysis. In general terms: Size exclusion chromatography separates by hydrodynamic size, large species first.
In data set [3] the target is T1, human LI-cadherin EC1-5 (human).
T1 chain: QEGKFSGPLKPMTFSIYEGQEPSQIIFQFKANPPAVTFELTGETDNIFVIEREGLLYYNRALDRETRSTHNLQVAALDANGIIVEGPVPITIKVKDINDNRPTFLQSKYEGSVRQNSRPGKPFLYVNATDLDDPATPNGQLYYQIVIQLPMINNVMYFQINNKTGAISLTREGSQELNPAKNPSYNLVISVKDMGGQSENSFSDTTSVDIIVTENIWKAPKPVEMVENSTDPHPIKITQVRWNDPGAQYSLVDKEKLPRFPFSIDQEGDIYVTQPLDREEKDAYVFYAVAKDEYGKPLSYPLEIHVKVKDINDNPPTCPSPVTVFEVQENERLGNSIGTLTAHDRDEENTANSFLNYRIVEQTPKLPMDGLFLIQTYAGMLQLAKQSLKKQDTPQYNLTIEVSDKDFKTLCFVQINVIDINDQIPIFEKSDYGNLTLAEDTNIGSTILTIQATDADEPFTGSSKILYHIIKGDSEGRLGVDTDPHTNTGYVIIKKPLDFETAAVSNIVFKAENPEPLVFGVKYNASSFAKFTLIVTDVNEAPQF
Nature of the data set: AUC; sedimentation velocity (SV-AUC), 20 °C, buffer A (10 mM Hepes-NaOH pH 7.5, 150 mM NaCl, 3 mM CaCl2); EC1-7 at 1-20 μM, EC1-2, EC3-4, EC1-4, EC1-5 at 1-60 μM, EC1-4F224A at 1-120 μM; KD of the monomer-dimer equilibrium (dimer to monomers) from the weight-average sedimentation coefficient, SEDPHAT. Conditions: both partners purified.

B1: human LI-cadherin EC1-2 (domain or fragment)
chain: GPLKPMTFSIYEGQEPSQIIFQFKANPPAVTFELTGETDNIFVIEREGLLYYNRALDRETRSTHNLQVAALDANGIIVEGPVPITIKVKDINDNRPTFLQSKYEGSVRQNSRPGKPFLYVNATDLDDPATPNGQLYYQIVIQLPMINNVMYFQINNKTGAISLTREGSQELNPAKNPSYNLVISVKDMGGQSENSFSDTTSVDIIVTE
notes: human LI-cadherin, extracellular cadherin repeats 1-2; source: Expi293F cells, culture supernatant, purified (Ni-NTA IMAC, SEC)
With B1, in data set [1], the Kd was found to be 75 µM and the “stoichiometry N” value is 2.

B2: human LI-cadherin EC1-4 N176A (domain or fragment)
chain: QEGKFSGPLKPMTFSIYEGQEPSQIIFQFKANPPAVTFELTGETDNIFVIEREGLLYYNRALDRETRSTHNLQVAALDANGIIVEGPVPITIKVKDINDNRPTFLQSKYEGSVRQNSRPGKPFLYVNATDLDDPATPNGQLYYQIVIQLPMINAVMYFQINNKTGAISLTREGSQELNPAKNPSYNLVISVKDMGGQSENSFSDTTSVDIIVTENIWKAPKPVEMVENSTDPHPIKITQVRWNDPGAQYSLVDKEKLPRFPFSIDQEGDIYVTQPLDREEKDAYVFYAVAKDEYGKPLSYPLEIHVKVKDINDNPPTCPSPVTVFEVQENERLGNSIGTLTAHDRDEENTANSFLNYRIVEQTPKLPMDGLFLIQTYAGMLQLAKQSLKKQDTPQYNLTIEVSDKDFKTLCFVQINVID
notes: human LI-cadherin, extracellular cadherin repeats 1-4, point mutant; Parent: m4; source: Expi293F cells, culture supernatant, purified (Ni-NTA IMAC, SEC)
Turning to B2, in data set [2], the binding result is on record as “binds”.

B3: human LI-cadherin EC1-4 Q404A (domain or fragment)
chain: QEGKFSGPLKPMTFSIYEGQEPSQIIFQFKANPPAVTFELTGETDNIFVIEREGLLYYNRALDRETRSTHNLQVAALDANGIIVEGPVPITIKVKDINDNRPTFLQSKYEGSVRQNSRPGKPFLYVNATDLDDPATPNGQLYYQIVIQLPMINNVMYFQINNKTGAISLTREGSQELNPAKNPSYNLVISVKDMGGQSENSFSDTTSVDIIVTENIWKAPKPVEMVENSTDPHPIKITQVRWNDPGAQYSLVDKEKLPRFPFSIDQEGDIYVTQPLDREEKDAYVFYAVAKDEYGKPLSYPLEIHVKVKDINDNPPTCPSPVTVFEVQENERLGNSIGTLTAHDRDEENTANSFLNYRIVEQTPKLPMDGLFLIQTYAGMLALAKQSLKKQDTPQYNLTIEVSDKDFKTLCFVQINVID
notes: as for B2
For B3, in data set [2], the binding result is “binds”.

B4: human LI-cadherin EC1-4 N371A (domain or fragment)
chain: QEGKFSGPLKPMTFSIYEGQEPSQIIFQFKANPPAVTFELTGETDNIFVIEREGLLYYNRALDRETRSTHNLQVAALDANGIIVEGPVPITIKVKDINDNRPTFLQSKYEGSVRQNSRPGKPFLYVNATDLDDPATPNGQLYYQIVIQLPMINNVMYFQINNKTGAISLTREGSQELNPAKNPSYNLVISVKDMGGQSENSFSDTTSVDIIVTENIWKAPKPVEMVENSTDPHPIKITQVRWNDPGAQYSLVDKEKLPRFPFSIDQEGDIYVTQPLDREEKDAYVFYAVAKDEYGKPLSYPLEIHVKVKDINDNPPTCPSPVTVFEVQENERLGNSIGTLTAHDRDEEATANSFLNYRIVEQTPKLPMDGLFLIQTYAGMLQLAKQSLKKQDTPQYNLTIEVSDKDFKTLCFVQINVID
notes: as for B2
For B4, in data set [2], the binding result is listed as “binds”.

B5: human LI-cadherin EC1-4 L355A (domain or fragment)
chain: QEGKFSGPLKPMTFSIYEGQEPSQIIFQFKANPPAVTFELTGETDNIFVIEREGLLYYNRALDRETRSTHNLQVAALDANGIIVEGPVPITIKVKDINDNRPTFLQSKYEGSVRQNSRPGKPFLYVNATDLDDPATPNGQLYYQIVIQLPMINNVMYFQINNKTGAISLTREGSQELNPAKNPSYNLVISVKDMGGQSENSFSDTTSVDIIVTENIWKAPKPVEMVENSTDPHPIKITQVRWNDPGAQYSLVDKEKLPRFPFSIDQEGDIYVTQPLDREEKDAYVFYAVAKDEYGKPLSYPLEIHVKVKDINDNPPTCPSPVTVFEVQENERAGNSIGTLTAHDRDEENTANSFLNYRIVEQTPKLPMDGLFLIQTYAGMLQLAKQSLKKQDTPQYNLTIEVSDKDFKTLCFVQINVID
notes: as for B2
With B5, in data set [2], the binding result is listed as “binds”.

B6: human LI-cadherin EC1-4 Y399A (domain or fragment)
chain: QEGKFSGPLKPMTFSIYEGQEPSQIIFQFKANPPAVTFELTGETDNIFVIEREGLLYYNRALDRETRSTHNLQVAALDANGIIVEGPVPITIKVKDINDNRPTFLQSKYEGSVRQNSRPGKPFLYVNATDLDDPATPNGQLYYQIVIQLPMINNVMYFQINNKTGAISLTREGSQELNPAKNPSYNLVISVKDMGGQSENSFSDTTSVDIIVTENIWKAPKPVEMVENSTDPHPIKITQVRWNDPGAQYSLVDKEKLPRFPFSIDQEGDIYVTQPLDREEKDAYVFYAVAKDEYGKPLSYPLEIHVKVKDINDNPPTCPSPVTVFEVQENERLGNSIGTLTAHDRDEENTANSFLNYRIVEQTPKLPMDGLFLIQTAAGMLQLAKQSLKKQDTPQYNLTIEVSDKDFKTLCFVQINVID
notes: as for B2
Turning to B6, the binding result in data set [2] is recorded as “binds”.

B7: human LI-cadherin EC1-4 N222A (domain or fragment)
chain: QEGKFSGPLKPMTFSIYEGQEPSQIIFQFKANPPAVTFELTGETDNIFVIEREGLLYYNRALDRETRSTHNLQVAALDANGIIVEGPVPITIKVKDINDNRPTFLQSKYEGSVRQNSRPGKPFLYVNATDLDDPATPNGQLYYQIVIQLPMINNVMYFQINNKTGAISLTREGSQELNPAKNPSYNLVISVKDMGGQSEASFSDTTSVDIIVTENIWKAPKPVEMVENSTDPHPIKITQVRWNDPGAQYSLVDKEKLPRFPFSIDQEGDIYVTQPLDREEKDAYVFYAVAKDEYGKPLSYPLEIHVKVKDINDNPPTCPSPVTVFEVQENERLGNSIGTLTAHDRDEENTANSFLNYRIVEQTPKLPMDGLFLIQTYAGMLQLAKQSLKKQDTPQYNLTIEVSDKDFKTLCFVQINVID
notes: as for B2
Consider B7, for which the binding result in data set [2] is “binds”.

B8: human LI-cadherin EC1-4 V210A (domain or fragment)
chain: QEGKFSGPLKPMTFSIYEGQEPSQIIFQFKANPPAVTFELTGETDNIFVIEREGLLYYNRALDRETRSTHNLQVAALDANGIIVEGPVPITIKVKDINDNRPTFLQSKYEGSVRQNSRPGKPFLYVNATDLDDPATPNGQLYYQIVIQLPMINNVMYFQINNKTGAISLTREGSQELNPAKNPSYNLAISVKDMGGQSENSFSDTTSVDIIVTENIWKAPKPVEMVENSTDPHPIKITQVRWNDPGAQYSLVDKEKLPRFPFSIDQEGDIYVTQPLDREEKDAYVFYAVAKDEYGKPLSYPLEIHVKVKDINDNPPTCPSPVTVFEVQENERLGNSIGTLTAHDRDEENTANSFLNYRIVEQTPKLPMDGLFLIQTYAGMLQLAKQSLKKQDTPQYNLTIEVSDKDFKTLCFVQINVID
notes: as for B2
As to B8, the binding result in data set [2] is reported as “binds”.

B9: human LI-cadherin EC1-4 (domain or fragment)
chain: QEGKFSGPLKPMTFSIYEGQEPSQIIFQFKANPPAVTFELTGETDNIFVIEREGLLYYNRALDRETRSTHNLQVAALDANGIIVEGPVPITIKVKDINDNRPTFLQSKYEGSVRQNSRPGKPFLYVNATDLDDPATPNGQLYYQIVIQLPMINNVMYFQINNKTGAISLTREGSQELNPAKNPSYNLVISVKDMGGQSENSFSDTTSVDIIVTENIWKAPKPVEMVENSTDPHPIKITQVRWNDPGAQYSLVDKEKLPRFPFSIDQEGDIYVTQPLDREEKDAYVFYAVAKDEYGKPLSYPLEIHVKVKDINDNPPTCPSPVTVFEVQENERLGNSIGTLTAHDRDEENTANSFLNYRIVEQTPKLPMDGLFLIQTYAGMLQLAKQSLKKQDTPQYNLTIEVSDKDFKTLCFVQINVID
modifications: N-glycans (four modelled on chain A, two on chain B of the crystal structure; sites not given)
notes: human LI-cadherin, extracellular cadherin repeats 1-4; Theoretical mass without glycan 49.8 kDa; also called EC1-4WT; WT; source: Expi293F cells, culture supernatant, purified (Ni-NTA IMAC, SEC)
As to B9, in data set [1], the Kd was determined as 39.8 µM and the “stoichiometry N” value amounted to 2.

B10: human LI-cadherin EC1-5 (domain or fragment)
chain: QEGKFSGPLKPMTFSIYEGQEPSQIIFQFKANPPAVTFELTGETDNIFVIEREGLLYYNRALDRETRSTHNLQVAALDANGIIVEGPVPITIKVKDINDNRPTFLQSKYEGSVRQNSRPGKPFLYVNATDLDDPATPNGQLYYQIVIQLPMINNVMYFQINNKTGAISLTREGSQELNPAKNPSYNLVISVKDMGGQSENSFSDTTSVDIIVTENIWKAPKPVEMVENSTDPHPIKITQVRWNDPGAQYSLVDKEKLPRFPFSIDQEGDIYVTQPLDREEKDAYVFYAVAKDEYGKPLSYPLEIHVKVKDINDNPPTCPSPVTVFEVQENERLGNSIGTLTAHDRDEENTANSFLNYRIVEQTPKLPMDGLFLIQTYAGMLQLAKQSLKKQDTPQYNLTIEVSDKDFKTLCFVQINVIDINDQIPIFEKSDYGNLTLAEDTNIGSTILTIQATDADEPFTGSSKILYHIIKGDSEGRLGVDTDPHTNTGYVIIKKPLDFETAAVSNIVFKAENPEPLVFGVKYNASSFAKFTLIVTDVNEAPQF
modifications: N-glycosylated (Expi293F), Ca2+-bound; limits by convention: mature N-terminus as in PDB 7CYM (EC1-4), end of the UniProt Cadherin 5 domain; His tag omitted; homodimerizes / N-glycosylated …
Take B10: in data set [3], binding was characterised by a dissociation constant (Kd) of 22.8 µM and the “stoichiometry N” value came to 2.
